Variants at the floor of the assay were thinned out.
Legend:
[1] = system: biotinyl-Phe-oxazolone; experiment: self-aminoacylation, catalytic enhancement (BFO) (fold over background); higher = more active; k-Seq, kA / k0A0; sequences stand for … in GGGAAUGGAUCCACAUCUACGAAUUC…UUCACUGCAGACUUGACGAAGCUG
Summary of the method: (§1)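 Mutagenized RNA pools with a 21-nt variable region (0.43 μM) reacted with each biotinyl-aminoacyl-oxazolone at 2–1250 μM. Reactions ran in 50 μL HEPES/NaCl/KCl/MgCl2/CaCl2 buffer with 5% acetonitrile, pH 6.9–7.0, for 90 minutes at room temperature. Streptavidin-captured RNA was quantified by triplicate qPCR and Illumina sequencing, and per-sequence fraction reacted was fit to a pseudo-first-order model with 1000 bootstraps. Catalytic enhancement is median kA divided by the uncatalyzed rate, the low-activity peak of a bimodal Gaussian fit.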

[2] = system: biotinyl-Ile-oxazolone; experiment: self-aminoacylation, catalytic enhancement (BIO) (fold over background); higher = more active; k-Seq, kA / k0A0; sequences stand for … in GGGAAUGGAUCCACAUCUACGAAUUC…UUCACUGCAGACUUGACGAAGCUG
Summary of the method: as §1

[3] = system: biotinyl-Met-oxazolone; experiment: self-aminoacylation, catalytic enhancement (BMO) (fold over background); higher = more active; k-Seq, kA / k0A0; sequences stand for … in GGGAAUGGAUCCACAUCUACGAAUUC…UUCACUGCAGACUUGACGAAGCUG
Summary of the method: as §1

[4] = system: biotinyl-Val-oxazolone; experiment: self-aminoacylation, catalytic enhancement (BVO) (fold over background); higher = more active; k-Seq, kA / k0A0; sequences stand for … in GGGAAUGGAUCCACAUCUACGAAUUC…UUCACUGCAGACUUGACGAAGCUG
Summary of the method: as §1

[5] = system: biotinyl-Leu-oxazolone; experiment: self-aminoacylation, catalytic enhancement (BLO) (fold over background); higher = more active; k-Seq, kA / k0A0; sequences stand for … in GGGAAUGGAUCCACAUCUACGAAUUC…UUCACUGCAGACUUGACGAAGCUG
Summary of the method: as §1

[6] = system: biotinyl-Trp-oxazolone; experiment: self-aminoacylation, catalytic enhancement (BWO) (fold over background); higher = more active; k-Seq, kA / k0A0; sequences stand for … in GGGAAUGGAUCCACAUCUACGAAUUC…UUCACUGCAGACUUGACGAAGCUG
Summary of the method: as §1

| Sequence | self-aminoacylation [1] | self-aminoacylation [2] | self-aminoacylation [3] | self-aminoacylation [4] | self-aminoacylation [5] | self-aminoacylation [6] |
| --- | --- | --- | --- | --- | --- | --- |
| CCACACUUCAAGCAACCGGCC [Fam1B.1 aminoacylation ribozyme variant] | 17.4 | 3.66 | 4.29 | 3.58 | 2.77 | 5.33 |
| CCACACUUCAAGCAAUAGGCC [Fam1B.1 aminoacylation ribozyme variant] | 0.88 | 0.939 | 0.9 | 1.04 | 1.05 | 0.71 |
| CCACACUUCAAGCAAUCAGUG [Fam1B.1 aminoacylation ribozyme variant] | 6.8 | 3 | 3.58 | 2.83 | 4.36 | 2.99 |
| CCACACUUCAAGCAAUCCUUC [Fam1B.1 aminoacylation ribozyme variant] | 1.19 | 0.89 | 0.649 | 0.899 | 0.44 | 0.533 |
| CCACACUUCAAGCAAUCGACC [Fam1B.1 aminoacylation ribozyme variant] | 1.25 | 0.623 | 0.518 | 0.751 | 0.399 | 0.447 |
| CCACACUUCAAGCAAUCGCAC [Fam1B.1 aminoacylation ribozyme variant] | 0.785 | 0.76 | 0.814 | 0.889 | 0.465 | 0.672 |
| CCACACUUCAAGCAAUCGGAU [Fam1B.1 aminoacylation ribozyme variant] | 0.817 | 1.03 | 0.886 | 1.38 | 0.789 | 1.63 |
| CCACACUUCAAGCAAUCUGCC [Fam1B.1 aminoacylation ribozyme variant] | 0.603 | 0.806 | 1.3 | 1.05 | 0.787 | 0.628 |
| CCACACUUCAAGCAAUGGGUU [Fam1B.1 aminoacylation ribozyme variant] | 0.91 | 1.22 | 1.14 | 1.71 | 1.39 | 1.46 |
| CCACACUUCAAGCACCCGGUC [Fam1B.1 aminoacylation ribozyme variant] | 0.709 | 1.55 | 1.74 | 1.75 | 1.64 | 2.07 |
| CCACACUUCAAGCACUCGCUC [Fam1B.1 aminoacylation ribozyme variant] | 2.93 | 2.02 | 2.25 | 2.07 | 2.39 | 1.51 |
| CCACACUUCAAGCAGACGGUC [Fam1B.1 aminoacylation ribozyme variant] | 0.719 | 0.686 | 0.607 | 0.57 | 0.605 | 0.539 |
| CCACACUUCAAGCAUUAGGUC [Fam1B.1 aminoacylation ribozyme variant] | 0.818 | 0.501 | 0.399 | 0.645 | 0.504 | 0.516 |
| CCACACUUCAAGCAUUCGGCC [Fam1B.1 aminoacylation ribozyme variant] | 0.749 | 1.84 | 1.25 | 1.99 | 1.63 | 1.69 |
| CCACACUUCAAGCAUUCGUUC [Fam1B.1 aminoacylation ribozyme variant] | 0.811 | 0.852 | 0.685 | 1.02 | 0.653 | 0.688 |
| CCACACUUCAAGCAUUGGGUC [Fam1B.1 aminoacylation ribozyme variant] | 0.918 | 1.04 | 1.03 | 1.4 | 0.83 | 0.956 |
| CCACACUUCAAGCAUUUGGUC [Fam1B.1 aminoacylation ribozyme variant] | 0.631 | 0.835 | 0.691 | 0.851 | 0.77 | 0.912 |
| CCACACUUCAAGCCAUCGGGC [Fam1B.1 aminoacylation ribozyme variant] | 1.42 | 2.49 | 1.85 | 3.22 | 4.06 | 2.1 |
| CCACACUUCAAGCCAUGGGUC [Fam1B.1 aminoacylation ribozyme variant] | 0.678 | 1.15 | 1.13 | 0.952 | 1.14 | 0.675 |
| CCACACUUCAAGCCCUCGGUC [Fam1B.1 aminoacylation ribozyme variant] | 5.16 | 1.4 | 2.01 | 1.58 | 1.64 | 1.92 |
| CCACACUUCAAGCGAUAGGUC [Fam1B.1 aminoacylation ribozyme variant] | 0.743 | 0.605 | 0.471 | 0.642 | 0.543 | 0.453 |
| CCACACUUCAAGCUAACGGUC [Fam1B.1 aminoacylation ribozyme variant] | 0.79 | 0.568 | 0.532 | 0.78 | 0.444 | 0.546 |
| CCACACUUCAAGCUACCGGUC [Fam1B.1 aminoacylation ribozyme variant] | 0.832 | 1.23 | 0.931 | 1.3 | 1.2 | 0.946 |
| CCACACUUCAAGCUAUCGGAC [Fam1B.1 aminoacylation ribozyme variant] | 0.941 | 0.982 | 0.654 | 1.01 | 0.681 | 0.582 |
| CCACACUUCAAGCUAUCGGUU [Fam1B.1 aminoacylation ribozyme variant] | 0.942 | 1.29 | 1.18 | 1.43 | 1.12 | 0.897 |

Reference: the supplement of paper PMC9233669
